# Results from patent publication US20180135015A1.
# Target: NKG2D ligands (NKG2DL) on target cells
# Assay: cell-based or functional assay
substance,measurement,value
NKG2D-DAP10-CD3zeta chimeric receptor complex (from UniProt Q9UBK5 19-93),"target cell apoptosis (U-2 OS), apoptotic cells/0.07 mm^2 (apoptotic cells/0.07 mm^2)",11.7
